{"source": "patent US20100093033", "key": {"[1]": {"molecular_target": "HIRA-LacI fusion (Escherichia coli LacI; HIRA organism not stated) (UniProt P03023)", "assay": "cell_activity", "conditions": "sIgM loss; untethered HIRA 1.7-fold"}, "[2]": {"molecular_target": "LacI-HP1 fusion (Escherichia coli LacI; Drosophila melanogaster HP1a) (UniProt P03023)", "assay": "cell_activity", "conditions": "sIgM loss; chromatin effects largely reversed by 250 uM IPTG"}, "[3]": {"molecular_target": "E47-LacI fusion (Escherichia coli LacI; E47 organism not stated) (UniProt P03023)", "assay": "cell_activity", "conditions": "sIgM loss; almost reversed by 100 uM IPTG"}, "[4]": {"molecular_target": "Lactose repressor LacI (Escherichia coli) (UniProt P03023)", "conditions": "CITED general LacO affinity, method not stated; printed as <10-12 M; cited from earlier work"}, "E2A (Gallus gallus)": {"system": "E2A (Gallus gallus)", "conditions": "ChIP with anti-E2A vs IgG, normalized to ovalbumin"}}, "data": [{"substance": "PolyLacO at Igλ (about 80-100 repeats of 20 bp lac operator, 3.8 kb)", "values": [{"measurement": "activity (fold diversification vs GFP-LacI)", "setting": "[1]", "value": 11}, {"measurement": "activity (fold diversification vs GFP-LacI)", "setting": "[2]", "value": 5.6}, {"measurement": "activity (fold diversification vs GFP-LacI)", "setting": "[3]", "value": 4.5}, {"measurement": "Kd", "setting": "[4]", "value": "< 1", "unit": "pM"}]}, {"substance": "rearranged VλR allele, DT40", "values": [{"measurement": "binding signal (fold enrichment)", "setting": "E2A (Gallus gallus)", "value": 17.6}]}]}
